Laboratory results published in PMC3823766, “Paralogs hnRNP L and hnRNP LL Exhibit Overlapping but Distinct RNA Binding Constraints”.

T1: FLAG-hnRNP LL (UniProt Q8WVV9 1-542)
T1 sequence: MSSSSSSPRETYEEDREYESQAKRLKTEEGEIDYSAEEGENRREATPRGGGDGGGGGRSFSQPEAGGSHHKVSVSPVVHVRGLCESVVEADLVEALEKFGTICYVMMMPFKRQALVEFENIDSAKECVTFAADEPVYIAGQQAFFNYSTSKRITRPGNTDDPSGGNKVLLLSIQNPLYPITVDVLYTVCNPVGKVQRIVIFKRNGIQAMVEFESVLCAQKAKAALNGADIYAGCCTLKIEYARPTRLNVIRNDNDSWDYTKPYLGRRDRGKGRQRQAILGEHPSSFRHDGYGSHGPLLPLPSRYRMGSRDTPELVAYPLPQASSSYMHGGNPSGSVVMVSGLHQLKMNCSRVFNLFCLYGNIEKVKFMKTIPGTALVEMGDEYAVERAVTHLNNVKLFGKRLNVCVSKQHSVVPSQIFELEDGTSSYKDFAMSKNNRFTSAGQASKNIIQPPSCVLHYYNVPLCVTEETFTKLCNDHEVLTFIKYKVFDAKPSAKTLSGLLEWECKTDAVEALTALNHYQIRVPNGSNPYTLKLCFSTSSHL

T2: GST-hnRNP L (UniProt P14866 1-589)
T2 sequence: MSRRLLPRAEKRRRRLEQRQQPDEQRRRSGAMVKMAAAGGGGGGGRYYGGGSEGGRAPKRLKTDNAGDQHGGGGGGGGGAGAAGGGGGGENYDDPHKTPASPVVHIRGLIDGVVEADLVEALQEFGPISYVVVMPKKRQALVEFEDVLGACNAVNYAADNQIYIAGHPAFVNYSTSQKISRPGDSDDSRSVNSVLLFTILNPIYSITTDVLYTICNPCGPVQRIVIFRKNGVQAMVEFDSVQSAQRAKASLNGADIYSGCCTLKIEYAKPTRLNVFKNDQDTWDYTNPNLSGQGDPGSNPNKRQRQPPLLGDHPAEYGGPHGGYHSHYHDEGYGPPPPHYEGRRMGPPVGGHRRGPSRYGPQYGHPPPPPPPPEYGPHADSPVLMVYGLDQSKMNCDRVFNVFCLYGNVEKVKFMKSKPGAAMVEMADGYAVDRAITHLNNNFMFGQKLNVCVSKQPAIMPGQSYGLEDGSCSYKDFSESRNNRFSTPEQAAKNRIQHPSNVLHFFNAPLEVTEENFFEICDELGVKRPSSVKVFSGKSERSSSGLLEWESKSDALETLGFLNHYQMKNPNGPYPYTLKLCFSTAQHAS


Tests used:
Test in all cases: EMSA; EMSA: ~1 fmol 32P RNA (0.1 nM), 4.5% native PAGE; binding buffer as in cited ref 9, not given; BC50 values printed only in figures
[1] = target: T1, FLAG-hnRNP LL; conditions: protein: recombinant; tags: N-terminal FLAG; label: 32P-CTP body label
[2] = target: T2, GST-hnRNP L; conditions: protein: recombinant; label: 32P-CTP body label
[3] = target: T2, GST-hnRNP L; conditions: protein: recombinant; label: 32P-CTP body label; remark: listed apart in the source
[4] = target: T1, FLAG-hnRNP LL; conditions: protein: recombinant; tags: N-terminal FLAG; label: 32P-CTP body label; remark: listed apart in the source
[5] = target: T1, FLAG-hnRNP LL; conditions: protein: recombinant; tags: N-terminal FLAG; label: 32P-CTP body label; remark: listed apart in the source
[6] = target: T2, GST-hnRNP L; conditions: protein: recombinant; label: 32P-CTP body label; remark: listed apart in the source
[7] = target: T1, FLAG-hnRNP LL; conditions: protein: recombinant; tags: N-terminal FLAG; label: 32P-CTP body label; remark: listed apart in the source

Binder	binding result [1]	binding signal [3]	binding result [2]	further results
CUUACCUACUCACACCACUGCAUUCUCACCCGCAAGCACC (ssRNA) [ESS1 wild type]				Kd [1]: ~2 nM; Kd [2]: ~2 nM
CUUACCUACUCACACGACUGCAUUCUCACCCGCAAGCACC (ssRNA) [ESS1 CA3 mutant (CA to GA)]	binds	~4 fold weaker than ESS1		
CUUACCUACUCACACCACUGGAUUCUCACCCGCAAGCACC (ssRNA) [ESS1 CA4 mutant (CA to GA)]	binds	~2 fold weaker than ESS1		
CUUACCUACUCACACCACUGCAUUCUCACCCGGAAGCACC (ssRNA) [ESS1 CA6 mutant (CA to GA)]		~10 fold weaker than ESS1		binding signal [4]: > 5 fold weaker than ESS1
CUUACCUACUCACACCACUGCAUUCUCACCCGCAAGUACC (ssRNA) [ESS1 CA7 mutant (CA to TA)]			binds	binding signal [4]: > 5 fold weaker than ESS1
CUUACCUACUUACACCACUGCAUUCUCACCCGCAAGCACC (ssRNA) [ESS1 CA1 mutant (CA to TA)]	binds			
CUUACCUACUCAGACCACUGCAUUCUCACCCGCAAGCACC (ssRNA) [ESS1 CA2 mutant (CA to GA)]	binds	~2 fold weaker than ESS1		
CAccCA (ssRNA) RNA: GAUCCCCCACCCAAGAUCUCCCACCCAAGAUCUCCCACCCAAGAUCUCCCACCCAAGAUCU				binding signal [5]: 5 fold weaker than CACACA; binding signal [6]: 15 fold weaker than CACACA
CUUACCUACUCACACCACUGCAUUCUGACCCGCAAGCACC (ssRNA) [ESS1 CA5 mutant (CA to GA)]	binds			
CACACA x4 (N=2 ca spacer) (ssRNA) RNA: GAUCCUUCACACAUUAGAUCUUUCACACAUUAGAUCUUUCACACAUUAGAUCUUUCACACAUUAGAUCU	binds		binds	
CA spacer N=3 (ssRNA) RNA: GAUCCUACAUUACAUAGAUCUUACAUUACAUAGAUCUUACAUUACAUAGAUCUUACAUUACAUAGAUCU			binds	
CAcCA (N=1) (ssRNA) RNA: GAUCCUCACCACCAUAGAUCUUCACCACCAUAGAUCUUCACCACCAUAGAUCUUCACCACCAUAGAUCU			binds	binding signal [7]: > 4 fold weaker than CACACA (at least)
CAuaCA (N=2) (ssRNA) RNA: GAUCCUACAUACAUAGAUCUUACAUACAUAGAUCUUACAUACAUAGAUCUUACAUACAUAGAUCU	binds		binds	
